Measured values: article PMC4395482 (The Journal of Cell Biology, 2015)

Molecular target: the molecule itself
Experiment: crystal structure

B1: hSac2 domain of human Sac2 (aa 593–760) (domain or fragment, UniProt Q9Y2H2 593-760, looked up)
chain: RSHQELISQLLQSYMKLLLPDDEKFHGGWALIDCDPSLIDATHRDVDVLLLLSNSAYYVAYYDDEVDKVNQYQRLSLENLEKIEIGPEPTLFGKPKFSCMRLHYRYKEASGYFHTLRAVMRNPEEDGKDTLQCIAEMLQITKQAMGSDLPIIEKKLERKSSKPHEDII
modifications: selenomethionine (selenomethionine protein crystals)
  stoichiometry N: 2
